Data: the nanobody polyreactivity screen of Harvey et al. (2022)

Experiment: yeast display, Sf9 membrane polyspecificity reagent, FACS + sequencing; frameworks hold sequencing errors
Procedure, shortened: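 A nanobody's polyreactivity label depends on the gate it was sorted from. Yeast display cells were stained with 10% biotinylated, detergent-solubilized Sf9 membrane reagent for 1 hour at 4 °C, enriched on streptavidin microbeads and sorted by FACS. The low and high (top ~1%) gates were set on anti-HA fluorescence for expression and streptavidin fluorescence for reagent binding.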

Sequence	polyreactivity (PSR sort gate)
QVQLVESGGGLVQAGGSLRLSCAASGRIFRYYAIGWYRQAPGKERELVAVITSSGGSTYYADSVKGRFTISRDNAKNTVYLQMNSLKPEDTAVYYCAKDHRSYWGQGTQVTVSS	high polyreactivity
QVQLVESGGGLVQAGGSLRLSCAASGRIFPAYTMGWYRQAPGKERELVAAISRGGRTKYADSVKGRFTISRDNANNTVYLQLNSLKPEDTAVYYCDTVTTYGGVWYDYWGQGTQVTVSS	high polyreactivity
QVQLVESGGGLVQAGGSLRLSSASSGSIFYVYAMGWYRQAPGKERELVAAIYSGASTYYADSVKGRFTISRDNAKNSVYLQMNSLKPEDTAVYYCADERYFYEYDYWGQGTQVTVSS	low polyreactivity
QVQLVESGGGIVQAGGSLRLSCAASGFTFYLYAMGWYRQAPGKERELVAAISRSGGYTYYADSVKGRFSISRDNAQNTVYLQMNSLKPEDTAVYYCNARWRSGPRAYDYWGQGTQVTVSS	high polyreactivity
QVQLVESGGGLVPAGGSLRFSCAASGMTFFVNDRGSYRQAPGKERELLAVISFTGDSTFYADSVKGRFTISRDKAQNTVSLQMHSLKPEETAVYYSAADFRRGFSKYSYYLYFDFDYWGQGTQVTVSS	low polyreactivity
QFQLVESGGGLVQAGGSLRLSCAASGSIFIPYAMGWYRQAPGKEREFVATITFGAASTYYADSVKGRFTISRDNAKNTVYLQMNSLKREDTAVYYCAAEWRRYEYADSWEYDYWGQGTQVTVSS	low polyreactivity
QVQLVESGGGLVQAGGSLRLSCAASGFTFRSYAMGWYRQAPGKERELVAAITSTGGRTYYADSVKGRFTISRDTAKNTVYLQMNSLKPEDTAVYYCAAGRKHYAPVHFGYWGQGTQVTVSS	high polyreactivity
QVQLVESGGGLVQAGGSLRLSCAASGSIFDAYMGWYRQAPGKERELVAGITRSGGSTYYADSVKGRFTISRDNAKNTVYLQMNSLKPEDTAVYYCAADYSSDGDYWGQGTQVTVSS	low polyreactivity
QVQLVDSWGGLVQAGASLRLSCAASGNTYSSYAMGWYRKAPGKERELVASITGRGGSTYYSDSVKGRFTISRDNAKNIVYLQMNSLKPEDTAVYYCTAKRFYITDDPLDYFYWGQCTQVTVSS	high polyreactivity
QVQIVESGGGLVQAGGSLRLSCPASGSIFPQYAMGWSRQAPRKERELVAGISGSGGGTYYADSVKGRITILRDNAKNNVFLQMNSVKPEETAVYYCNALYAPYGWFYGLYDYGGQGTQVTVSS	low polyreactivity
QVQLVESGGGLVQAGGSLRLSCAASGRIFYDYTMGWYRPAPGKERELVAAINSGGGSTYYADSVKGRFTISRDNAKITVYLQMNSLKPEDTAVYYCNADGQWNIWEYDYWGQGTQVTVSS	high polyreactivity
QVQLVESGGGLVQAGGSLRLSCAASGFTFRDYSMGWYRQAPGKERELVAAMSFSGGRTFYADSVKGRFTISRDNGKNTVYLQMNSLKPEDTAVYFCNAQYLTSRYYPRRNLDYWGQGTQVTVSS	high polyreactivity
QVQLVESGGGLVQAGGSLRLSCAASGSTFRPNAMGWYRQAPGKERELVATIRTSGGTTYYADSVKGRFTISRDNAKNTVYLQMNSLKPEDTAVYYCAATKFGSSYDYWGQGTQVTVSS	low polyreactivity
QVQLVESGGGLVQAGGSLRLSCAASGSTFTYYAMGWYRQAPGKERELFAAITFRGDSTYYADSVKGRFTISRDNAKNTVYLQMNILKPEDTAVYYCNADSISSTYYDEDYWGQGTQVTVSS	low polyreactivity
QVQLVESGGGLVQAGGSLRLSCAASGRTFRSYAMGWYRQAPGKERELVAGISYNGGSTYYADSVKGRFTISRDNAKNTVYLQMNSLKPADTAGYYCAATHHYRLYDYWGQGTQVNVSS	low polyreactivity
QVQLVESGGCLVQAGGSLRLSCAASGRIFQYYTMGWYRQAPAKERELVAAITYSGGDTRYADSVKGRFTISRDNAKNTVYLQMNSLKPEDTAVYYCAADYFDQYQYGVWTYGYWGQGTQVTVSS	low polyreactivity
QVQLVESGGGLVQAGGSLRLSCAASGIIFYRYAMGWYRQAPGKEWELVAAITWRGGSTYYADSVKGRFTISRDNAKNTVYLQMTSLKPEDTAVYYCAARRRATYEFDYWGQGTQVTVSS	high polyreactivity
QVQLVDSGGGLVQAGGSLRLSCATSGYTFKAYAMVWYRQAPGKERELVAGISRSGGSTYYADSVKGRFTISRDNAKNTVYLQINSLKPEDTAVYYCAADSFSCETVVPSVLEFDYWGQGTQVTLSS	low polyreactivity
QVQLVESGGGLVQAGGSLRLSCAASGFIFTDYAMGWYRQAPGKERELVAAISSGGRTYYADSVKGRFTISRDNAKNTVYLQMNSLKPEDTAVYYCARGGRAEGWGQGTQVTVSS	high polyreactivity
QVQLVESGGGLVQAGGSLRLSCAASGRIFPLYAMGWYRQAPGKERELVAAITSSGGSTYYADSVKGRFTISRDNAKNTVYLQMNSLKPEDTAVYYCAADYSVYWLDYGYWGQGTQVTVSS	low polyreactivity
QDQHVESGGGLVQAGGSLRLSCAASGLTFDQYAMGWYRQAPGKERELVAAISGSDSTYYADSVKGRFTISRDNAKNTVYLQMNSLKPEDTAVYYCAASGDYVNIITGERFDARLYDYWGQGTQVTVSS	low polyreactivity
QVQLVESGGGLVQAGGSLRLSCAASGFTFRYNAMGWYRKPPGKERELVAAITSGGNTNYADSVKGRFTISRDNAKNTVYLQMNSLKPEDTAVYYCNTAWRDYVARLGGVGYDYWGQGTQVTVSS	high polyreactivity

Sequence	polyreactivity (PSR sort gate)
QVQLVESGGGLVQAGGSLRLSCAASGLTFWYYAMGWYRQAPGKERELVAAIDWSGASTYYADSVKGRFTISRDNAKNTVYLQMYSLKPEDTAVYYCNTVYYIGDDYWGQGTQVTVSS	high polyreactivity
QVQLGESGGGLVQAGGSLRLSCAASGRTFYSYAMGWYRHAPWKERELVAAISASGGRTYYADSVKGRFTISRDNEKNTVYLQMNSLKPEDTAVYYCAAYPWYRMWGQGTQVTVSS	high polyreactivity
QVQLVESGGGLVQAGGSLRLSCAASGSIFYSNTMGWYRQAPGKERELVAAISRGGSTYYADSVKGRFTISRENAKNTVYLQMNSLKPEDTAVYYCAARYRWAPAYDYWGQGTQVTVSS	high polyreactivity
QVQLVESGGGLVQAGGSLRLSCAASGRIFGDNALGWYRQAPGKERELVAAITWSGGSTYYADSVKGRFTISRDNAKNTVYLQMNSLKPEDTAVYYCAADSHRDSSEMDYWGQGTQVTVSS	low polyreactivity
QVQLVESGGGLVQAGGSLRLSCAASGFLFVVYTMGWYRQAPGKERELVAAITSGGSTYYADSVKGRFTISRDNAKNTVYLQMNSLKPEDTAVYYCNALASRYPAYYYWGQGTQVTVSS	low polyreactivity
QVQLVESGGGLVQAGGSLRLSCAASGSIFSFYAMGWYRQAPGKERELVAAITSDGSTDYADSVKGRFTISRDNAKNTVYLQMNSLKPEDTAVYYCAADYIVRVVSRYRYGYEYWGQGTQVTVSS	low polyreactivity
QVQLVESGGGLVQAGGSLRLSCAASGFIFVYYGMGWYRQAPGKERELVAAISRSGGSTYYADSVKGRFTISRDNAKNTVYLQMNSLKPEDTAVYYCAARPDRSSQFDSWGQGTQVTVSS	high polyreactivity
QVQLVESGGGLVQAGGSLRLSCAASGRIFYAYTMGWYRQAPGKERELVAAISGSGSTYYADSVKGRFTISRDNAKNNVYLQMNSLKPEDTAVYYCAKRYRFHFWGQGTQVTVSS	low polyreactivity
QVQLVESGGGLVQAGGSLRLSCAASGRTFYHNAMGWYRQAPGKERELVAAITSSGGRTYYADSVKGRFTISRDNAKNTVYLQMNSLKPEDTAVYYCNARYLGGQVRYWYYNKYDYWGQGTQVTVSS	high polyreactivity
QVQLVESGGGLVQAGGSLRLSCAASGSTFDGNVMGWYRQAPGKERELVADIDSGGSTNYADSVKGRFTISRDNAKNTVYLQMNSLKPEDTAVYYCKAEWDDSFIRWFRYRGNYWGQGTQVTVSS	low polyreactivity
QVQLVESGGGLVQAGGSLRLSCAASGRIFPYYAMGWYRQAPGKERELVASTNYADSVKGRFTISRDNAKNTVYLQMNSLKPEDTAVYYCAADGYRYSVYLIRNPMDYWGQGTQVTVSS	low polyreactivity
QVQLVESGGGLVQAGGSLRLSCAASGLIFRRNAMGWYRQAPGKERELVAAISWSGGSTYYADSVKGRFTISRDNAKNTVYLQMNSLKPEDTAVYYCNRGGFSRYYYWGHGTQVTVSS	low polyreactivity
QVQLVESGGGLVQARGSLRLSCASSGRIFDNYAMGWYRQAPGKERELVAAITYIDSGTYYADSVKGRFTISRDNAKNTVYLQMNSLKPEDTAVFYCAVGLNSDSKRKTQKYGYWGQGTQVTVSS	low polyreactivity
QVHLVESGGGLVQAGGSLRLSCAASGSIKQNAMGWYRQAPGKERELVAAIDWDGSSTYYADSVKGRFTISRDNAKNTVYLQMNSLKPEDTAVYYCNTDYTGPDGTDEYDYWGQGTQVTVSS	low polyreactivity
QVQLVESGGGLVQAGGSLRLSCAASGFILGSNVMGWYRQAPGKERELVAAISYSGGSTYYADSVKGRFTISRDNAKNTVYLQMNSLKPEDTAVYYCARRLTREYDYWGQGTQVTVSS	low polyreactivity
QVQIEESGGALVQEGGSLRLSRAASGRTFYYYAMGWYRQAPGKERELVAGIDFSSGSTYYADSVKGRFTISRDNAKNTVYLQMNSLKPEDTAVYYCAAKWHVRGRGARYRYDYDYWGQGTQVTVSS	low polyreactivity
QVQLGESGGGLVQAGGSLRLSCAASGSTFPFNAMGWYRQAPGKERELVAAITLRGGRTYYADSVKGRFTISRDNAKNTVYLQMNSMKPEDTAVYYCAARHNPYRYYHWGQGTQVTVSS	high polyreactivity
QVQLVESGGGLVQAGGSLRLSCAASGNIIVENAMGWYRQAPAKERELVAVSTSGTSTYADSVKGRFTISRDNAKITVYLQMNSLKPEDTAVYYCNARRINTLYDYWGQGTQVTVSS	low polyreactivity
QVQLVESGGGLVQAGGSLRLSCAASGSISTYYAMGWYRQAPGKERELVAAISKSGGSTYYADSVKGRFTISRDNAKYTVYLQMNSLKPEDTEVYYCAARYKGRAFWMDYWGQGTQVTVSS	high polyreactivity
QVQLVESGGGLVQGGGSLRLSCAASGRNWSRYAMGWYRQAPGKERELVADITYSGGNTYYADSVKGRFTISRDNAKNTVYLQMNSLKPEDTAVYYCSTGWSWWTFDYWGQGTQVTVSS	high polyreactivity
QVQLVESGGGLVQAGGSLRLSCAASGFTIGANNMGWYRQAPGKERELLAAISASGGSTYYADSVKGRFTISRDNAKNTVYLQMNSLKPEDTAVYYCAARRYPGRTATYYSWGQGTQVTVSS	high polyreactivity
